Reference: patent publication US20230277625A1 (SIMCHA IL 18, published 2023)
Residue numbers refer to the chain shown, from its start.

Columns and labels:
[1] = target: T1, Human IL-18BP (amino acids 31-194), biotinylated (human, UniProt O95998 31-194, biotin on the AviTag (BirA ligase) where used biotinylated); test: SPR, single-cycle injections of 1.5, 4.5, 13.5, 40.5 and 121.5 nM over immobilized biotinylated hIL-18BP; the sheet prints two constants, KD1 and KD2 (KD2 = 15.2 nM is the value in the text)
T1 construct: Soluble decoy receptor; also called hIL-18BP; recombinant IL-18BP
T1 sequence: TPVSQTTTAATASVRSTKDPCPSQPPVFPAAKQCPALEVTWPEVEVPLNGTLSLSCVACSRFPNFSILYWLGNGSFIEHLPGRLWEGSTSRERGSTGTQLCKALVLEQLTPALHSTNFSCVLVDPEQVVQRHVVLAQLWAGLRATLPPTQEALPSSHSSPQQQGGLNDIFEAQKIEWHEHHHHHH
Method: (§1) By contrast, very little binding is observed with the same variants and hIL-18BP (right).
(§2) Experiments were conducted using a Biacore T100 and carried out at 25° C. Biotinylated IL-18Rα or IL-18BP were immobilized onto a Biacore biotin capture chip (Series S CAP sensor chip, GE Healthcare) to yield an Rmax of ˜50 RU (IL-18Rα) or ˜10 RU (IL-18BP). Measurements were made with serial dilutions of the IL-18 variants in HEPES buffered Saline-P+buffer (10 mM HEPES pH 7.4, 150 mM NaCl, 0.005% surfactant P20). The surface was regenerated by three 60-sec injections of regeneration buffer (3/4 (v/v) 8M guanidine hydrochloride with 1/4 (v/v) 1M sodium hydroxide). Experiments were performed in multiple channels simultaneously for increased observations. All data were analyzed with the Biacore T100 evaluation software version 2.0 with a 1:1 Langmuir binding model.

[2] = target: T1, Human IL-18BP (amino acids 31-194), …; test: SPR; KD ratio relative to WT IL-18
Method: as §2
(§3) To additionally characterize the receptor binding activities of the DR-IL-18 variants, the cytokines were expressed recombinantly and surface plasmon resonance for IL-18Rα and IL-18BP was performed (see FIG. 5B for representative traces).

[3] = target: T1, Human IL-18BP (amino acids 31-194), …; test: SPR; average of 2 studies
[4] = target: T2, Human IL-18Rα ectodomain (amino acids 19-329), biotinylated (human, UniProt Q13478 19-329, biotin on the AviTag (BirA ligase)); test: SPR; average of 2 studies
T2 construct: range 19-329; Secreted from insect cells (gp67 signal peptide removed); also called hIL-18Rα; hIL18Rα
T2 sequence: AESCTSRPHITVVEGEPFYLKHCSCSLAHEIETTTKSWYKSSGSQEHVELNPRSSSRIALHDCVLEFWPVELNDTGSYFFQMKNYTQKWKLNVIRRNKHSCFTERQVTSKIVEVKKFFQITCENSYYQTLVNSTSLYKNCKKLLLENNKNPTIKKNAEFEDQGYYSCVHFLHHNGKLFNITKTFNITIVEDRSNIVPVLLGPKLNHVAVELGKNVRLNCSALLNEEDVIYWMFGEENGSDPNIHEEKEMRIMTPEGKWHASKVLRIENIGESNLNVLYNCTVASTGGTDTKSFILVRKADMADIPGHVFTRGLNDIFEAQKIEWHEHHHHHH

[5] = target: T1, Human IL-18BP (amino acids 31-194), …; test: SPR, immobilized biotinylated hIL-18BP, representative sensorgram FIG. 5B; representative sensorgram, FIG. 5B; single run, not the average
Method: as §1, §2

[6] = target: T1, Human IL-18BP (amino acids 31-194), …; test: on-yeast binding isotherm (flow cytometry), drawn summary table, column IL18BP (KD)
Method: (§4) Individual colonies of IL-18 yeast were grown overnight at 30° C. in SDCAA liquid media and induced in SGCAA liquid media for 1 day at 20° C. IL-18 display levels on yeast were verified by flow cytometry using an anti-cMyc tag antibody (anti-myc-PE; Cell Signaling Technologies). Receptor staining with biotinylated IL-18Rα (with or without IL-18R β) or biotinylated IL-18BP was performed in PBS supplemented with 0.5% BSA and 2 mM EDTA (PBE) on ice. All analysis was performed on a Sony SA3800 flow cytometer.

[7] = target: T1, Human IL-18BP (amino acids 31-194), …; test: SPR (Biacore T100), IL-18BP captured via biotin, IL-18 as analyte
Method: as §2, §3

[8] = target: T2, Human IL-18Rα ectodomain (amino acids …); test: SPR (Biacore T100), receptor captured via biotin, IL-18 as analyte
Method: as §2, §3

[9] = target: T2, Human IL-18Rα ectodomain (amino acids …); test: on-yeast binding isotherm (flow cytometry), drawn summary table, IL18Rα (KD)
Method: as §4

[10] = target: T1, Human IL-18BP (amino acids 31-194), …; test: SPR; KD(IL-18BP)/KD(IL-18Rα) normalized to WT IL-18
[11] = target: T1, Human IL-18BP (amino acids 31-194), …; test: on-yeast binding isotherm (flow cytometry); members per FIG. 5A legend
Method: as §4, §3

[12] = target: T1, Human IL-18BP (amino acids 31-194), …; test: on-yeast binding isotherms; KD for IL-18BP over KD for IL-18Rα
[13] = target: T1, Human IL-18BP (amino acids 31-194), …; test: on-yeast binding isotherms; KD ratio relative to WT IL-18
[14] = target: T1, Human IL-18BP (amino acids 31-194), …; test: SPR; KD for IL-18BP over KD for IL-18Rα
Method: as §2, §3

[15] = target: T1, Human IL-18BP (amino acids 31-194), …; test: on-yeast binding isotherm (flow cytometry)
[16] = target: T1, Human IL-18BP (amino acids 31-194), …; test: on-yeast binding isotherms; 20 µM used for NBD; yeast-displayed variant, flow cytometry; ratio computed with 20 µM put in for NBD
[17] = target: T1, Human IL-18BP (amino acids 31-194), …; test: on-yeast binding isotherms; KD ratio relative to WT IL-18; yeast-displayed variant; ratio normalized to WT, from the 20 µM placeholder
[18] = target: T3, Mouse IL-18BP (amino acids 31-194), biotinylated (mouse, UniProt Q9Z0M9 29-193, biotin on the AviTag (BirA ligase)); test: on-yeast binding isotherms; 10 µM used for NBD; yeast-displayed variant; ratio computed with 10 µM put in for NBD
T3 construct: also called mIL-18BP
T3 sequence: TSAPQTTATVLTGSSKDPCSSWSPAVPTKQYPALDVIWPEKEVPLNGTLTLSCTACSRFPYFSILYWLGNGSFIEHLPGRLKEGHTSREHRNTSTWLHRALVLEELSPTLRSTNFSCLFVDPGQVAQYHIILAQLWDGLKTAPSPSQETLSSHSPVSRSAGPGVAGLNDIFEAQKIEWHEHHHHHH
Method: as §4

[19] = target: T3, Mouse IL-18BP (amino acids 31-194), …; test: SPR; KD ratio relative to WT IL-18; SPR; ratio normalized to WT
Method: as §2

[20] = target: T3, Mouse IL-18BP (amino acids 31-194), …; test: on-yeast binding isotherms; KD ratio relative to WT IL-18; yeast-displayed variant; ratio normalized to WT, from the 10 µM placeholder
Method: as §4

[21] = target: T3, Mouse IL-18BP (amino acids 31-194), …; test: SPR; range of a group, this end tied to A7 by the 9th table; m is a multiple of 1,000,000
[22] = target: T4, Mouse IL-18Rα ectodomain (amino acids 19-329), biotinylated (mouse, UniProt Q61098 19-329, biotin on the AviTag (BirA ligase)); test: on-yeast binding isotherm (flow cytometry)
T4 construct: range 19-329; Secreted from Expi293 cells (H7 signal peptide removed); also called mIL-18Rα; mIL18Ra
T4 sequence: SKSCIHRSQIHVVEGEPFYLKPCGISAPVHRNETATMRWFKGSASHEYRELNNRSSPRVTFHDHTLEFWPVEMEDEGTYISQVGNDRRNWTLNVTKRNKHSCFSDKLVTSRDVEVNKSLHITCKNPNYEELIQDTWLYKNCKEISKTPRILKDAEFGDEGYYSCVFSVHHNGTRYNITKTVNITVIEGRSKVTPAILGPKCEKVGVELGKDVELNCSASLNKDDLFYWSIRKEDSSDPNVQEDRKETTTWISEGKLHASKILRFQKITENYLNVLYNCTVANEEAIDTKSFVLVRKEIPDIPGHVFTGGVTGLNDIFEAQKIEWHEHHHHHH
Method: as §4

[23] = target: T3, Mouse IL-18BP (amino acids 31-194), …; test: SPR (Biacore T100), IL-18BP captured via biotin, IL-18 as analyte; SPR, soluble variant
Method: as §2

[24] = target: T3, Mouse IL-18BP (amino acids 31-194), …; test: yeast binding isotherms and SPR; members per FIG. 11A legend
Method: as §4, §2

[25] = target: T4, Mouse IL-18Rα ectodomain (amino acids …); test: SPR (Biacore T100), receptor captured via biotin, IL-18 as analyte
Method: as §2

[26] = target: T3, Mouse IL-18BP (amino acids 31-194), …; test: SPR; KD for IL-18BP over KD for IL-18Rα; SPR; ratio of two measured KD
Method: as §2

B1: SEQ ID NO: 34 (human DR-IL-18 variant hCS1) (ligand)
chain: YFGKLESKLSVIRNLNDQVLFIDQGNRPLFEDMTDSDCRDNAPRTIFIISTYKDSQPRGKAVTISVKCEKISTLSCENKIISFKEMNPPDNIKDTKSDIIFFQRDVPGHKHKMQFESSSYEGYFLACEKERDLFKLILKKEDELGDRSIMFTVQNED
notes: Engineered variant
- KD1 (first of two fitted dissociation constants) [1]: 36.7 nM
- Dissociation Constant Ratio normalized to WT IL-18 [2]: 3720
- Kd [3]: 0.0118 µM
- Kd [4]: 0.008 µM
- Kd [5]: 0.0152 µM
- Kd [6]: 0.71 µM
- Kd [7]: 0.0194 µM
- Kd [8]: 0.00805 µM
- Kd [9]: 0.146 µM
- IL-18 BP:Rα Dissociation Constant Ratio [10]: 3020
- EC50 [11]: > 1 µM
- KD ratio IL-18BP/IL-18Rα [12]: 300
- Dissociation Constant Ratio normalized to WT IL-18 [13]: 1020
- KD ratio IL-18BP/IL-18Rα [14]: 2.41
- Kd [15]: 19.3 µM

B2: SEQ ID NO: 35 (human DR-IL-18 variant hCS2) (ligand)
chain: B1 chain with S55K, G59A, V153I
notes: Engineered variant
- KD ratio IL-18BP/IL-18Rα [16]: > 219
- Dissociation Constant Ratio normalized to WT IL-18 [17]: > 741
- Kd [8]: 0.0131 µM
- Kd [9]: 0.092 µM

B3: SEQ ID NO: 70 (murine DR-IL-18 variant mA7) (ligand)
chain: YFGRLHCTTAVIRNINDQVLFVDKRQPVFEDMTDIDQSASEPQTRLIIYAYGDNRVRGKAVTLSVKDSKMSTLSCKNKIISFEEMDPPENIDDIQSDLIFFQKRVPGHNKMEFESSLYEGHFLACQKEDDAFKLILKKKDENGDKSVMFTLTNLHQS
notes: Engineered variant
- KD ratio IL-18BP/IL-18Rα [18]: > 741
- Dissociation Constant Ratio normalized to WT IL-18 [19]: 3.45e+07
- Dissociation Constant Ratio normalized to WT IL-18 [20]: > 3930
- IL-18 BP:Rα Dissociation Constant Ratio [21]: 3.5e+07
- Kd [22]: 0.0135 µM
- Kd [23]: 13.9 µM
- Kd [24]: > 1 µM
- Kd [25]: 0.00022 µM
- KD ratio IL-18BP/IL-18Rα [26]: 63200
